# B1: recombinant Plasmodium falciparum 3D7 60S stalk ribosomal protein P2, 6x His-tag (natural protein, UniProt O00806 1-112, looked up)
# chain: MAMKYVAAYLMCVLGGNENPSTKEVKNVLGAVNADVEDEVLNNFIDSLKGKSCHELITDGLKKLQNIGGGVAAAPAGAAAVETAEAKKEDKKEEKKEEEEEEEDDLGFSLFG
# B2: rec.PfP2 pre-reduced and alkylated with iodoacetamide (natural protein, Plasmodium falciparum 3D7, UniProt O00806 1-112, looked up)
# chain: MAMKYVAAYLMCVLGGNENPSTKEVKNVLGAVNADVEDEVLNNFIDSLKGKSCHELITDGLKKLQNIGGGVAAAPAGAAAVETAEAKKEDKKEEKKEEEEEEEDDLGFSLFG
# modifications: all cysteine residues pre-reduced and alkylated with Iodoacetamide (IAA)
# B3: Plasmodium falciparum P2 protein, endogenous in wild type 3D7 parasites (natural protein, UniProt O00806 1-112, looked up)
# chain: MAMKYVAAYLMCVLGGNENPSTKEVKNVLGAVNADVEDEVLNNFIDSLKGKSCHELITDGLKKLQNIGGGVAAAPAGAAAVETAEAKKEDKKEEKKEEEEEEEDDLGFSLFG
# B4: PfP2-HA of transgenic P. falciparum 3D7 parasites (natural protein, Plasmodium falciparum 3D7, UniProt O00806 1-112, looked up)
# chain: MAMKYVAAYLMCVLGGNENPSTKEVKNVLGAVNADVEDEVLNNFIDSLKGKSCHELITDGLKKLQNIGGGVAAAPAGAAAVETAEAKKEDKKEEKKEEEEEEEDDLGFSLFG
# How the values were obtained:
# non-reducing SDS-PAGE = target: the molecule itself; test: non-reducing SDS-PAGE
# native gel or EMSA = target: the molecule itself; test: native gel or EMSA
# [1] = target: the molecule itself; test: SDS-PAGE after LAFS treatment
# [2] = target: the molecule itself; test: reducing SDS-PAGE and immunoblot of parasite lysate
protein,measurement,setting,value
B1,stoichiometry N,non-reducing SDS-PAGE,2
same,stoichiometry N,native gel or EMSA,4
B2,stoichiometry N,[1],4
B3,stoichiometry N,[2],4
B4,stoichiometry N,[2],4

# From article doi:10.1101/2022.06.11.495734 (bioRxiv, 2022)
